Tested on: Escherichia coli TOP10
Test: shrunken log2 fold change of peptide-encoding DNA abundance (4.5 h post-induction vs induction); higher = less antimicrobial activity (less host growth inhibition)
Details: time post-induction: 4.5 h; library: site-saturation at positions 5, 18, 19, 20
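Note: peptides expressed intracellularly from a pBAD plasmid library in pooled LB shake-flask culture, induced with 0.3% L-arabinose, DNA abundance read by NGS, three biological replicates, DESeq2 with apeglm shrinkage.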

Sequence | shrunken log2 fold change
RRIRIRPPRLPRPRPRPFVLPRP | -0.113
RRIRIRPPRLPRPRPRPFVVPRP | -0.235
RRIRIRPPRLPRPRPRPFWPPRP | -0.056
RRIRIRPPRLPRPRPRPFYFPRP | -0.448
RRIRIRPPRLPRPRPRPGAHPRP | -0.0753
RRIRIRPPRLPRPRPRPGAMPRP | 0.046
RRIRIRPPRLPRPRPRPGANPRP | 0.0193
RRIRIRPPRLPRPRPRPGCCPRP | -0.04
RRIRIRPPRLPRPRPRPGCNPRP | -0.247
RRIRIRPPRLPRPRPRPGCTPRP | -0.268
RRIRIRPPRLPRPRPRPGDEPRP | -0.0396
RRIRIRPPRLPRPRPRPGEGPRP | 0.38
RRIRIRPPRLPRPRPRPGETPRP | 0.0122
RRIRIRPPRLPRPRPRPGFAPRP | 0.282
RRIRIRPPRLPRPRPRPGKQPRP | -0.0943
RRIRIRPPRLPRPRPRPGMCPRP | -0.238
RRIRIRPPRLPRPRPRPGMHPRP | 0.00513
RRIRIRPPRLPRPRPRPGPMPRP | 0.0608
RRIRIRPPRLPRPRPRPGPYPRP | -0.376
RRIRIRPPRLPRPRPRPGRPPRP | 0.398
RRIRIRPPRLPRPRPRPGTYPRP | -0.0378
RRIRIRPPRLPRPRPRPGVVPRP | -0.47
RRIRIRPPRLPRPRPRPGWCPRP | -0.082
RRIRIRPPRLPRPRPRPGWDPRP | 0.105
RRIRIRPPRLPRPRPRPGYPPRP | -0.173

Sequence | shrunken log2 fold change
RRIRIRPPRLPRPRPRPGYVPRP | -0.181
RRIRIRPPRLPRPRPRPHAMPRP | -0.125
RRIRIRPPRLPRPRPRPHDFPRP | 0.0334
RRIRIRPPRLPRPRPRPHDWPRP | -0.317
RRIRIRPPRLPRPRPRPHFPPRP | 0.00276
RRIRIRPPRLPRPRPRPHHMPRP | -1.2
RRIRIRPPRLPRPRPRPHHNPRP | -0.0464
RRIRIRPPRLPRPRPRPHHPPRP | -0.629
RRIRIRPPRLPRPRPRPHIMPRP | -1.41
RRIRIRPPRLPRPRPRPHKHPRP | -0.881
RRIRIRPPRLPRPRPRPHKKPRP | -0.0912
RRIRIRPPRLPRPRPRPHKSPRP | -1.18
RRIRIRPPRLPRPRPRPHLSPRP | -0.0549
RRIRIRPPRLPRPRPRPHPTPRP | -0.216
RRIRIRPPRLPRPRPRPHQIPRP | -0.423
RRIRIRPPRLPRPRPRPHQKPRP | -0.0756
RRIRIRPPRLPRPRPRPHQPPRP | -0.421
RRIRIRPPRLPRPRPRPHQSPRP | -0.406
RRIRIRPPRLPRPRPRPHRGPRP | -0.00841
RRIRIRPPRLPRPRPRPHSKPRP | -0.677
RRIRIRPPRLPRPRPRPHTAPRP | 0.055
RRIRIRPPRLPRPRPRPHTWPRP | -0.401
RRIRIRPPRLPRPRPRPHVIPRP | -0.0939
RRIRIRPPRLPRPRPRPHVSPRP | -0.0557
RRIRIRPPRLPRPRPRPHVTPRP | -0.132

Sequence | shrunken log2 fold change
RRIRIRPPRLPRPRPRPHWFPRP | 0.022
RRIRIRPPRLPRPRPRPHWWPRP | 0.133
RRIRIRPPRLPRPRPRPHYIPRP | -0.155
RRIRIRPPRLPRPRPRPIATPRP | -0.471
RRIRIRPPRLPRPRPRPICHPRP | -0.326
RRIRIRPPRLPRPRPRPICYPRP | -0.325
RRIRIRPPRLPRPRPRPIDGPRP | -0.248
RRIRIRPPRLPRPRPRPIDPPRP | -0.142
RRIRIRPPRLPRPRPRPIEKPRP | -0.0304
RRIRIRPPRLPRPRPRPIETPRP | -0.0467
RRIRIRPPRLPRPRPRPIHCPRP | -0.00133
RRIRIRPPRLPRPRPRPIIIPRP | -0.598
RRIRIRPPRLPRPRPRPIKWPRP | -0.118
RRIRIRPPRLPRPRPRPILGPRP | -0.0266
RRIRIRPPRLPRPRPRPILQPRP | -0.146
RRIRIRPPRLPRPRPRPIMKPRP | -0.227
RRIRIRPPRLPRPRPRPIMTPRP | -0.26
RRIRIRPPRLPRPRPRPIQQPRP | -0.0134
RRIRIRPPRLPRPRPRPIQTPRP | -0.0155
RRIRIRPPRLPRPRPRPIRCPRP | 0.0793
RRIRIRPPRLPRPRPRPISWPRP | -0.392
RRIRIRPPRLPRPRPRPITCPRP | -0.378
RRIRIRPPRLPRPRPRPITGPRP | -0.0492
RRIRIRPPRLPRPRPRPIYHPRP | -0.622
RRIRIRPPRLPRPRPRPKATPRP | -0.141
